assay: yeast display, Sf9 membrane polyspecificity reagent, FACS + sequencing; frameworks hold sequencing errors
How it was run: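 In a synthetic yeast display library (Saccharomyces cerevisiae BJ5465), nanobody expression was induced with galactose for 36–48 hours. FACS gates were set low and high (top ~1%) using anti-HA fluorescence for expression and streptavidin fluorescence for binding of the Sf9 membrane reagent. Each polyreactivity label is drawn from the gate of origin.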

| Sequence | polyreactivity (PSR sort gate) |
| --- | --- |
| QVQLVESGGGLVQAGGSLRLSCAASGFIFDPYAMGWYRQAPGKERELVAAISDGGSTNYADSVKGRFTISRDNAKNTVYLQMNSLKPEDTAVYYCAVEYWYVWVTFDYWGQGTQVTVSS | low polyreactivity |
| QVQLVESGGGLVQAGGSLRLSCAASGFIFDQYAMGWYRQAPGKERELVATITSDGDTYYADSVKGRFTISRDNAKNTVYLHMISLKPEDSAVYYCAVEPGPYTTGYDYWGQGTQVTVSS | low polyreactivity |
| QVQLVESGGGLVQAGGSLRLSCAASGFIFDRNAMGWYRQAPGKERELVAAISKSGGSTYYADSVKGRFSISRDNAKNTVYLQMNSLKPEDTAVYYCAADRPTIRYNSWGQGTQVTVSS | high polyreactivity |
| QVQLVESGGGLVQAGGSLRLSCAASGFIFDRNTMGWYRQAPGKERELVAAISRSGGSTYYADSVKGRFTISRDNAKNTVYLLMNSLKPEDSAVYYCAALYYYRNRSYDYWGQGTQVTVSS | high polyreactivity |
| QVQLVESGGGLVQAGGSLRLSCAASGFIFDTYVRGWYRQAPGKERELVAAISRTGGRTYYADSVKGRFTISRDNAKNTLYLQMNSLKPEDTAVYYCAARQSTQSGSYRRYNYWGQGTQVTVSS | high polyreactivity |
| QVQLVESGGGLVQAGGSLRLSCAASGFIFDVYAMGWYRQAPGKERELVAAITSGDGTNYADSVKGRFTISRDNAKNTVYLQMNSLKPEDTAVYYCAADDGVTYRGIIFSYWGQGTQVTVSS | low polyreactivity |
| QVQLVESGGGLVQAGGSLRLSCAASGFIFDWNTMGWYRQAPGKERELVAAITESSGSTYYADSVKGRFTISRDNAKNTVYLQMNSLKPEDTAVYDCAADFSYVYYLYDYWGQGTQVTVSS | low polyreactivity |
| QVQLVESGGGLVQAGGSLRLSCAASGFIFDWNTMGWYRQAPGKERELVAAITESSGSTYYADSVKGRFTISRDNAKNTVYLQMNSLKPEDTAVYYCAADLDVYVSIGSRFHFDYWGQGTQVTVSS | low polyreactivity |
| QVQLVESGGGLVQAGGSLRLSCAASGFIFDWNTMGWYRQAPGQERELVAAITESSGSTYYADSVKGRFTISRDNAKNTVYLQMNSLKPEDTAVYYCAAESLISWRYDYWGQGTQVTVSS | low polyreactivity |
| QVQLVESGGGLVQAGGSLRLSCAASGFIFDWYTMGWYRQAPGKERELVAAITIGGSTDYADSVKGRFTISRDNAKNTVYLLMNSLKPEDTAVYYCNALWYLSGTWYDYWGQGTQVTVSS | low polyreactivity |
| QVQLVESGGGLVQAGGSLRLSCAASGFIFDYYAMGWYRQAPGKERELVAAITSRSGSTYYADSVKGRFTISRDNAKNTVYLQMNSLKPEDTAVYYCAAVYPDYSSARYDYWGQGTQVTVSS | high polyreactivity |
| QVQLVESGGGLVQAGGSLRLSCAASGFIFEDYAMGWYTQATGKERELVAAITWRGGRTYYADSVKGRFTISRDNAKNTVYLQMNSLKPEDTAVYYCRPQVYSYASRYGYWGQGTQVTVLS | low polyreactivity |
| QVQLVESGGGLVQAGGSLRLSCAASGFIFEGYAMGWYRQAPGKERELVAAISRGGGSTYYADSVKGRFTISRDNAKNTVYLQMNSLKPEDTAVYSCATGGYYHYTGVKMYYWGQGTQVTVSS | high polyreactivity |
| QVQLVESGGGLVQAGGSLRLSCAASGFIFEKYTMGWYRQAPGKERELVAAITWNGGSTYYADSVKGRFTISRDNAKNTVYLQMNSLKPEDTAVYYCAARVGWNKRRYDYWGQGTQVNVSS | low polyreactivity |
| QVQLVESGGGLVQAGGSLRLSCAASGFIFETYVMGWYRQAPGKVRALVAAISGGGSTYYADSVKGRFTMSRDNAKNTVYLQMNSLKPEDTAVYYCAAGSWRARSYYHYYYWGQGTQVTVSS | high polyreactivity |
| QVQLVESGGGLVQAGGSLRLSCAASGFIFEWNGMGWYRQAPGKERELVAAITWSGGSTYYADSVKGRFTISRDNAKYTVYLHMNSLKPEDTAVYYCAADFPEYYLPYDYWGQGTQVTVSS | low polyreactivity |

| Sequence | polyreactivity (PSR sort gate) |
| --- | --- |
| QVQLVESGGGLVQAGGSLRLSCAASGFIFEWYAMGWYRQAPGKERELVAGIDSGSTYADSVKGRFTISRDNAKNTVYLQMNSLKPEDTAVYYCAKRSDAVIQRTYRYDYWGQGTQVTVSS | low polyreactivity |
| QVQLVESGGGLVQAGGSLRLSCAASGFIFEYYAMGWYRQAPGKERELVAAINGGGGNTYYADSVKGRFTISRDNAKNTVYLQMNSLKPEDTAVYYCNAKRRKYRYDYWGQGTEVTVSS | high polyreactivity |
| QVQLVESGGGLVQAGGSLRLSCAASGFIFEYYAMGWYRQAPGKERELVAAISSSGGSTYYADSVKGRFTISRDNAKNTVYLQMNSLKPEDTAVYYCAKDYAPSATKLHYWGQGTQVTVSS | low polyreactivity |
| QVQLVESGGGLVQAGGSLRLSCAASGFIFFKYAMGWYRQAPGKERELVAGITSGGSTYYADSVKGRFTISRDNAKNTVYLQMNSLKPEDTAVYYCAAYVKRESAPYGYWGQGTQVTVSS | low polyreactivity |
| QVQLVESGGGLVQAGGSLRLSCAASGFIFFLNAMGWYRQAPGKERELVAAISSSGGRTYYADSVKGRFTISRDNAKNTVYLQMNSLKPEDTAVYYCNAVTLYRSRTDGYWGQGTQVTVSS | high polyreactivity |
| QVQLVESGGGLVQAGGSLRLSCAASGFIFFQNAMGWYRQAQGKERELVAAISRRGGSTYYADSVKGRFTISRDNAKNTVYLQMNSLKPEDTAVYYCAARSRGDLASLYTGDYWGQGTQVTVSS | low polyreactivity |
| QVQLVESGGGLVQAGGSLRLSCAASGFIFFRYDMAWYRQAPGKERELVAVITSSGSTNYADSVKGRFTISRDNAKNTVYLQMNSLKPEDTAVYYCNARGYWTWYRGYRMDYWGQGTQVTVSS | high polyreactivity |
| QVQLVESGGGLVQAGGSLRLSCAASGFIFFSYAMGWYRQAPGKEREFVASISGRTGSTYYADSVKGRFTISRDNAKNTVYLQMNSLKPEDTAVYYCNARIVHSFRYDYWGQGTQVNVSS | low polyreactivity |
| QVQLVESGGGLVQAGGSLRLSCAASGFIFFVNAMGWSRQAPGKEREFVATITGSGGSTYYADSVKGRFTISRDNAKNTVYLQMNSLKPEDTAVYYCAADSLTPKSASDYWGQGTQVTVSS | low polyreactivity |
| QVQLVESGGGLVQAGGSLRLSCAASGFIFFVNAMGWYRQAPGKEREFVATITGSGGSKYYADSVKGRFTISRDIAKNTVYLQMISLKPEDTAVYYCNAETYIVLRGKFPVEYDYWGQGTQVTVSS | low polyreactivity |
| QVQLVESGGGLVQAGGSLRLSCAASGFIFFYYAMGWYRQAPGKERELVAAITKNGGRTYYADSVKGRFTISRDNAKNTVYLQMNSLKPEDTAVYYCNKVKGQGGYYGYDYWGQGTQVTVSS | high polyreactivity |
| QVQLVESGGGLVQAGGSLRLSCAASGFIFGDYAMGWYRQAPGKERELVAAINRGASTYYADSVKGSFTISRDNPKNTVYLQMNSLTPEDTAVYYCAAAGNSRGGRGGYWGQGTQVSVSS | high polyreactivity |
| QVQLVESGGGLVQAGGSLRLSCAASGFIFGDYAMGWYRQAPGKERELVAAISRSGGRTYYADSVKGRFTISRDNAKNTVYLQMNSLKPEDTAVYDCAKSCLNIYDYWGQVTQVTVSS | high polyreactivity |
| QVQLVESGGGLVQAGGSLRLSCAASGFIFGDYAMGWYRQAPGKERELVAAITWSGGRTYYADSVKGRFTISRDNAKNTVYLQMNSLKPEDTAVYYCSAVWYTSRQKYDYWGQGTQVTVSS | low polyreactivity |
| QVQLVESGGGLVQAGGSLRLSCAASGFIFGFNAMGWYRQAPGKERELVAVFNRSGSRTYYADSVKGRFTISRDNAKNTVYLQMNSLKPEDTAVYYCNAYPRYQYWGQGTLVTVSS | high polyreactivity |
| QVQLVESGGGLVQAGGSLRLSCAASGFIFGGNAMGWYRPAPGKERELVAAISRRGGNTYYADSVKGRFTISRDNAKITVYLQMNSLKPEDTAVYYCATGTSYWYLWAYDYWGQGTQVTVSS | high polyreactivity |
